Experiments:
VEGF = molecular target: T1, VEGF (human, UniProt P15692-4 27-191, limits assumed); test: SPR
T1 construct: also called vascular endothelial growth factor

human TGF-β1 = molecular target: T2, human TGF-β1 (human, UniProt P01137 279-390); test: refers back to Example 3 (SPR)
T2 construct: also called hTGF-β1

human TGF-β2 = molecular target: T3, human TGF-β2 (human, UniProt P61812 303-414); test: refers back to Example 3 (SPR)
T3 construct: also called hTGF-β2
T3 sequence (looked up): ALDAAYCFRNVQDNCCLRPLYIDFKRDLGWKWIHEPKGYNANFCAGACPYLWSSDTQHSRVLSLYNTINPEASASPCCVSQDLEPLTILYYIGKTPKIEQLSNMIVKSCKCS

human TGF-β3 = molecular target: T4, human TGF-β3 (human, UniProt P10600 301-412); test: refers back to Example 3 (SPR)
T4 construct: also called hTGF-β3
T4 sequence (looked up): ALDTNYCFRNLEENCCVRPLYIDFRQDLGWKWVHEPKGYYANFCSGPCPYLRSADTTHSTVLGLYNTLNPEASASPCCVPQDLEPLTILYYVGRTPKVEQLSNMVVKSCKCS

Measured: binding result

T2 sequence (P01137 279-390 limits assumed): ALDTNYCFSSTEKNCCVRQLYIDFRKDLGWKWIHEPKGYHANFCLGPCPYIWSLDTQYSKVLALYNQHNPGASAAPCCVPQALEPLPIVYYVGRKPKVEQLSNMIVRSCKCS
T1 sequence (P15692 other isoform, or with tags, fused parts or gaps limits assumed): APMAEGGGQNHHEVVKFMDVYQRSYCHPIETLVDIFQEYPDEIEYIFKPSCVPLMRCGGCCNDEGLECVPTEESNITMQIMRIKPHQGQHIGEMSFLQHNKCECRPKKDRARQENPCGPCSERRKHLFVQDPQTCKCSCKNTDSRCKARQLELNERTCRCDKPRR

B1: mENG(27-581)-mFc (Fc fusion)
chain: GGERVGCDLQPVDPTRGEVTFTTSQVSEGCVAQAANAVREVHVLFLDFPGMLSHLELTLQASKQNGTETQEVFLVLVSNKNVFVKFQAPEIPLHLAYDSSLVIFQGQPRVNITVLPSLTSRKQILDWAATKGAITSIAALDDPQSIVLQLGQDPKAPFLCLPEAHKDMGATLEWQPRAQTPVQSCRLEGVSGHKEAYILRILPGSEAGPRTVTVMMELSCTSGDAILILHGPPYVSWFIDINHSMQILTTGEYSVKIFPGSKVKGVELPDTPQGLIAEARKLNASIVTSFVELPLVSNVSLRASSCGGVFQTTPAPVVTTPPKDTCSPVLLMSLIQPKCGNQVMTLALNKKHVQTLQCTITGLTFWDSSCQAEDTDDHLVLSSAYSSCGMKVTAHVVSNEVIISFPSGSPPLRKKVQCIDMDSLSFQLGLYLSPHFLQASNTIELGQQAFVQVSVSPLTSEVTVQLDSCHLDLGPEGDMVELIQSRTAKGSCVTLLSPSPEGDPRFSFLLRVYMVPTPTAGTLSCNLALRPSTLSQEVYKTVSMRLNIVSPDLSGKGTGGGEPRVPITQNPCPPLKECPPCAAPDLLGGPSVFIFPPKIKDVLMISLSPMVTCVVVDVSEDDPDVQISWFVNNVEVHTAQTQTHREDYNSTLRVVSALPIQHQDWMSGKEFKCKVNNRALPSPIEKTISKPRGPVRAPQVYVLPPPAEEMTKKEFSLTCMITGFLPAEIAVDWTSNGRTEQNYKNTATVLDSDGSYFMYSKLRVQKSTWERGSLFACSVVHEGLHNHLTTKTISRSLGK
notes: also called mu-Endoglin; soluble murine ENG fusion protein
no binding: all assays above

From US20200164029A1 (ACCELERON PHARMA, published 2020)
